Results from doi:10.1101/2025.04.08.647717.
One block for each substance: values may come before it.

Experiments:
[1] = target: WT XauSPARDA (binary DREN-APAZ:Ago monomer) (Xanthobacter autotrophicus strain Py2); experiment: SEC-MALS
[2] = target: XauE37A (XauSPARDA with E37A in the DREN domain of DREN-APAZ) (Xanthobacter autotrophicus strain Py2); experiment: SEC-MALS
[3] = target: EaeE37A (EaeSPARDA with E37A in the DREN domain of DREN-APAZ) (Enhydrobacter aerosaccus); experiment: SEC-MALS
[4] = target: XauHSH (XauSPARDA whose XauAgo carries a 29 aa HSH-tag at the C-terminus) (Xanthobacter autotrophicus strain Py2); experiment: SEC-MALS
[5] = target: XauDREN-APAZ protein (Xanthobacter autotrophicus strain Py2); experiment: cryo-EM structure
[6] = target: WT EaeSPARDA (binary DREN-APAZ:Ago monomer) (Enhydrobacter aerosaccus); experiment: SEC-MALS

stoichiometry N [1]: 2
Substance: WT XauSPARDA (binary DREN-APAZ:Ago monomer) (complex)

stoichiometry N [2]: 2
Substance: XauE37A (XauSPARDA with E37A in the DREN domain of DREN-APAZ) (complex)

stoichiometry N [3]: 2
Substance: EaeE37A (EaeSPARDA with E37A in the DREN domain of DREN-APAZ) (complex)

stoichiometry N [4]: 2
Substance: XauHSH (XauSPARDA whose XauAgo carries a 29 aa HSH-tag at the C-terminus) (complex)

stoichiometry N [5]: 4
Substance: XauDREN-APAZ protein (natural protein)

stoichiometry N [6]: 2
Substance: WT EaeSPARDA (binary DREN-APAZ:Ago monomer) (complex)
